# “Also recorded” adds a separate entry of the source.
# Experiments:
# [1] = system: MSRV-Env induced EAE in C57BL/6 mice; assay: EAE clinical score, Example 3.A (EAE induced with MOG and MSRV-Env); format: in vivo; settings: treatment from day 12 to day 29: GNbAc1 200 μg once, L-NAME 600 μg IP and SMT 1 mg IP every 4 days, DMF 1 mg daily in drinking water
# Excerpt: Pathogen free female C57BL/6 nice (6-8 weeks old) were purchased from the Charles River laboratories and maintained at the animal facilities for one week before immunization. One day before immunization, all mice have been weighed, and then evaluated on the Rotarod Test. Rotarod:
# (§1) Animals were weighed and clinically scored 5 days per week according to the following criteria: 0=no signs; 1=tail paralysis or hyper-reflex of hind limb(s) or unilateral hind limb weakness; 2=bilateral hind limb or forelimb weakness; 3=plus unilateral paralysis or major deficit; 4=complete hind limb or forelimb paralysis; 5=plus partial paralysis or major deficit of opposite limbs; 6=moribund or dead. These were adapted from standard criteria, in order to reflect the more rapid induction of brain and cervical cord lesions with this model.
# (§2) All groups of 6 (six) mice have been first injected s.c. in the neck on day 0 then in the dorsal flanks on day 7 and 14; with 200 μg of MOG/mouse+60 μg of MSRV-Env+IFA.
# (§3) For Groups G to H, the treatments with GNbAc1, L-NAME, SMT and DMF alone or together with GNbAc1 with the doses indicated below, have been initiated on day 12 post immunization when the progression of EAE clinical symptoms was already observed. GNbAc1 humanized antibody was administered once, but L-Name or SMT was administered every 4 days until termination of the study on day 29. Regarding Groups E and H, attributed for the treatment with DMF, we have previously determined the volume of daily water consumption by each mouse and it has been determined that (in our condition), each mouse consumed around 3.5 ml drinking water per day. Thus, on the basis of this measurement, a dose of 1 mg DMF+0.08% Methocel per mouse were added to 3.5 ml drinking water daily.
# 350 ng of pertussis toxin (PTX) per animal was injected (i.p.) in all groups on the same day following each immunogen injection, and replicated 2 days later, as usual in EAE protocols in order to facilitate the migration lymphocytes through the blood-brain barrier.
# [2] = system: MSRV-Env induced EAE in C57BL/6 mice; assay: Rotarod test, Example 3.A (MSRV-Env induced EAE); format: in vivo; settings: Example 3.A doses
# Method: 9 and 8 days before immunization. Transfer of mice, in their home cages, from the holding room to the experimental room. Mice are habituated to the experimental room for 15 min. During the training period, each mouse was placed on the rotarod at a constant speed (4 rpm) if one mouse was falling, she was back on rotarod, when mice were comfortable on the rotarod, mice were running during 120 sec. All mice were returned to their cage, the speed was increased to 13 rpm and mice were again put on the rotarod for 120 sec. All mice were returned to their cage, the speed was increased to 19 rpm and mice were again put on the rotarod for 120 sec. The experimental-room environment were kept constant between test sessions with respect to temperature, and light intensity.
# 1 day before each immunization, mice were transferred in their home cages, from the holding room to the experimental room. Mice were habituated to the experimental room for 15 min. Mice then received two trials at 10 increasing speed levels, ranging from 7 to 40 rpm. Individual delays before falling off the rotarod (for the two trials at each speed level) was recorded until 60 sec. Thus, training and performance on the Rotarod system were determined for each animal.
# The ROTAROD test results are expressed as kinetics of the mean of individual scores for each group with SEM indicated by bars, for each test day and for each test speed within the discriminating range for neuromotor impairment in present conditions (16 to 29 rpm).
# They are calculated for each individual mouse, for each test day and for each speed value, as the relative gain or loss of time on Rotarod (before falling), compared to the first test day at the same speed (D-7, before starting the disease induction in relevant groups). The value is calculated as “Time on Rotarod at dayX”−“Time at Day-7 for the same mouse at the same speed”. Figures illustrate the kinetics for the different groups on the whole study period, for representative discriminative speed values when validated to differentiate ill from healthy animals in our conditions (e.g., too high or too low speed values either made healthy ones fall immediately or ill ones capable to sustain a slow movement).
# as §2, §3
# [3] = system: MSRV-Env induced EAE in C57BL/6 mice; assay: EAE clinical score with intravenous MSRV-Env challenge, Example 3.B; format: in vivo
# Excerpt: as §1
# When not specified, all materials and methods were as described for Example 3A.
# All mice received three injections s.c. on the neck at DO, on the dorsal flank at D7 and D14. Here, mice from Group A were injected with 200 μg/mouse of MOG and IFA only, without Env, thus constituting a negative control group without EAE in the present series (ctrl −). The positive control group with untretated EAE in the present series is represented by Group B (ctrl +). Other groups were injected with 200 μg of MOG/mouse+MSRV-ENV (60 μg)+IFA, with treatments as indicated in the above summarized presentation. […]
# For Groups G and H receiving DMF, we have previously determined the volume of daily water consumption by each mouse and it has been realized that (in our condition), each mouse consumed around 3.5 ml drinking water per day. […]
# [4] = Weight gain kinetics, Example 3.B; format: in vivo, mice
# Method: Mice were weighed 3 times a week on Monday, Wednesday and Friday during all experiment.
# All mice received three injections s.c. on the neck at DO, on the dorsal flank at D7 and D14. Here, mice from Group A were injected with 200 μg/mouse of MOG and IFA only, without Env, thus constituting a negative control group without EAE in the present series (ctrl −). The positive control group with untretated EAE in the present series is represented by Group B (ctrl +). Other groups were injected with 200 μg of MOG/mouse+MSRV-ENV (60 μg)+IFA, with treatments as indicated in the above summarized presentation. Treatments have been initiated on day 12 post immunization in their corresponding groups.
# The clinical signs score and weight were evaluated regularly as described above. The EAE clinical score kinetics over the study period are represented in FIGS. 22, 23 and 24. The weight curves, indicating relative weight gain compared to the day before first injection of immunogens, are presented in FIGS. 25, 26 and 27.
molecule,measurement,setting,value
"GNbAC1: recombinant humanized anti-Env IgG4 monoclonal antibody comprising the CDRs of SEQ ID No. 1 to 6 (antibody, chains of the INN, looked up, V domains shown) VH: QVQLVQSGAEVKKPGSSVKVSCKASGYTFTDYEMHWVRQAPGQGLEWIGAVAPETGGTAYNQKFKGRATITADKSTSTAYMELSSLRSEDTAVYYCTSTVVPFAYWGQGTLVTVSS VL: QIQLTQSPSSLSASVGDRVTITCSASSSVSYMYWYQQKPGKAPKAWIYRTSNLASGVPSRFSGSGSGTDYTLTISSLQPEDFATYYCQQYQSLPLTFGGGTKVEIK",EAE clinical score kinetics and recovery,[1],improve after its injection
same,EAE clinical score kinetics and recovery,[1]; listed as GNbAc1,diminished slightly
same,Rotarod scores in all conditions (16 to 29 rpm tests),[2]; compared to untreated group A / to GNbAc1 alone,greatly stabilized and/or improved scores
same,Time on Rotarod at 23 rpm relative to Day -7,[2]; end of study period,recovered a score similar to control mice without disease induction
same,Time on Rotarod at 26 rpm relative to Day -7,[2]; end of study period,"recovered a score similar to D,G,C,E and H groups"
same,Time on Rotarod at 29 rpm relative to Day -7,[2]; end of study period,recovered a score similar to control mice without disease induction
same,EAE clinical score after iv MSRV-Env challenge (20 μg),"[3]; GNbAC1 200 μg at day 12, alone or with SMT (I.P. twice a week) or DMF (2 mg daily in drinking water)",transient clinical impairment
same,EAE clinical score after iv MSRV-Env challenge (20 μg),"[3]; GNbAC1 500 μg at day 12, alone or with SMT or DMF (2 mg daily in drinking water)",very efficient in conferring resistance; also recorded: best clinical efficiency
same,"weight gain over the study period, endpoint",[4]; GNbAC1 200 μg,endpoints equivalent to mock-controls
same,"weight gain over the study period, endpoint","[4]; GNbAC1 500 μg, alone or with DMF",best endpoint; also recorded: positive effect on the global health
